The target of one assay is T1, KaiC (Synechococcus elongatus, UniProt Q79PF4 1-519).
T1 sequence: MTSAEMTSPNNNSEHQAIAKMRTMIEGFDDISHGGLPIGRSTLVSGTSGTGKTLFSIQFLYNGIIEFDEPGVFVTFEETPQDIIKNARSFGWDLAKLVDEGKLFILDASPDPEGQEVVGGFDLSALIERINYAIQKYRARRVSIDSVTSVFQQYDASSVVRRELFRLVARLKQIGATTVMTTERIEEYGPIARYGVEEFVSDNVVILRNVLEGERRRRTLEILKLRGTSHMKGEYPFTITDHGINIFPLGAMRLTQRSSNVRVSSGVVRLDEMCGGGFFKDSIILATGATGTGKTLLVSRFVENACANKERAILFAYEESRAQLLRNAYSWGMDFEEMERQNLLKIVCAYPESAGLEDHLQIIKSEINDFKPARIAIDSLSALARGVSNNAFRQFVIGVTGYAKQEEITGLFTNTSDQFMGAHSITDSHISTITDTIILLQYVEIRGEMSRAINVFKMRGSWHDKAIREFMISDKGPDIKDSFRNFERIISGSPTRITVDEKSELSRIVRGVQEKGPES
The assay is described as follows: fluorescence polarisation.

The target of the next assay is T2, SasA (unlabeled) (Synechococcus elongatus, UniProt Q06904 1-387).
T2 sequence: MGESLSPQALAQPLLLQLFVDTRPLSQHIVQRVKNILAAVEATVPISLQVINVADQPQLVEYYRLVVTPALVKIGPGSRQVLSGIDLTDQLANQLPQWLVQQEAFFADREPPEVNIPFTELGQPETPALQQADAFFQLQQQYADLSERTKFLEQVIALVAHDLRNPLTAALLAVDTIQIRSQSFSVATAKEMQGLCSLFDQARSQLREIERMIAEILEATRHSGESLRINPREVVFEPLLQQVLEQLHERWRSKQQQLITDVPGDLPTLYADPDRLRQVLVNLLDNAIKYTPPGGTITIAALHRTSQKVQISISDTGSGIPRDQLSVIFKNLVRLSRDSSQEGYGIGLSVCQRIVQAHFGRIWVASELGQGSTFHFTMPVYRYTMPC
Description: fluorescence polarisation. A general note: In fluorescence polarisation assays a small probe gives low polarisation when free and higher when bound to something large.

B1: SasA, fluorescently labeled probe (enzyme)
chain: MGESLSPQALAQPLLLQLFVDTRPLSQHIVQRVKNILAAVEATVPISLQVINVADQPQLVEYYRLVVTPALVKIGPGSRQVLSGIDLTDQLANQLPQWLVQQEAFFADREPPEVNIPFTELGQPETPALQQADAFFQLQQQYADLSERTKFLEQVIALVAHDLRNPLTAALLAVDTIQIRSQSFSVATAKEMQGLCSLFDQARSQLREIERMIAEILEATRHSGESLRINPREVVFEPLLQQVLEQLHERWRSKQQQLITDVPGDLPTLYADPDRLRQVLVNLLDNAIKYTPPGGTITIAALHRTSQKVQISISDTGSGIPRDQLSVIFKNLVRLSRDSSQEGYGIGLSVCQRIVQAHFGRIWVASELGQGSTFHFTMPVYRYTMPC
modifications: fluorescently labeled using sortase-mediated ligation
For B1, the binding result with KaiC was “binds”.

B2: KaiA, fluorescently labeled probe (natural protein)
chain: MLSQIAICIWVESTAILQDCQRALSADRYQLQVCESGEMLLEYAQTHRDQIDCLILVAANPSFRAVVQQLCFEGVVVPAIVVGDRDSEDPDEPAKEQLYHSAELHLGIHQLEQLPYQVDAALAEFLRLAPVETMADHIMLMGANHDPELSSQQRDLAQRLQERLGYLGVYYKRDPDRFLRNLPAYESQKLHQAMQTSYREIVLSYFSPNSNLNQSIDNFVNMAFFADVPVTKVVEIHMELMDEFAKKLRVEGRSEDILLDYRLTLIDVIAHLCEMYRRSIPRET
modifications: fluorescently labeled using sortase-mediated ligation
For the molecule B2, the binding result with KaiC is given as “binds”.

B3: RpaA R121Q mutant (natural protein)
chain: MKPRILVIDDDSAILELVAVNLEMSGYDVRKAEDGIKGQALAVQLVPDLIMLDLMLPRVDGFTVCQRLRRDERTAEIPVLMLTALGQTQDKVEGFNAGADDYLTKPFEVEEMLARVRALLQRTDRIPHAARHSEILSYGPLTLIPERFEAIWFNRTVKLTHLEFELLHCLLQRHGQTVAPSEILKEVWGYDPDDDIETIRVHIRHLRTKLEPDPRHPRYIKTVYGAGYCLELPAETELHQHADQFPSAS
With B3, the binding result with SasA (unlabeled) is given as “binds”.

B4: RpaA, fluorescently labeled probe (natural protein)
chain: MKPRILVIDDDSAILELVAVNLEMSGYDVRKAEDGIKGQALAVQLVPDLIMLDLMLPRVDGFTVCQRLRRDERTAEIPVLMLTALGQTQDKVEGFNAGADDYLTKPFEVEEMLARVRALLRRTDRIPHAARHSEILSYGPLTLIPERFEAIWFNRTVKLTHLEFELLHCLLQRHGQTVAPSEILKEVWGYDPDDDIETIRVHIRHLRTKLEPDPRHPRYIKTVYGAGYCLELPAETELHQHADQFPSAS
modifications: fluorescently labeled using sortase-mediated ligation
For the molecule B4, the binding result with SasA (unlabeled) is on record as “binds”.

The record behind these values is publication doi:10.1101/2020.06.18.158576 (bioRxiv, 2020).
